In patent US20260274985A1 (MYTHIC THERAPEUTICS, published 2026):
Positions count from the first letter of the chain named. Values belong to the binder of their own block, whether it stands above or below them.

Assays:
[1] = target: T1, Human TROP2 Protein, His Tag (Acro Biosystems) (human, UniProt P09758 27-274); experiment: BLI (Octet)
T1 construct: not shown: His tag
T1 sequence (looked up): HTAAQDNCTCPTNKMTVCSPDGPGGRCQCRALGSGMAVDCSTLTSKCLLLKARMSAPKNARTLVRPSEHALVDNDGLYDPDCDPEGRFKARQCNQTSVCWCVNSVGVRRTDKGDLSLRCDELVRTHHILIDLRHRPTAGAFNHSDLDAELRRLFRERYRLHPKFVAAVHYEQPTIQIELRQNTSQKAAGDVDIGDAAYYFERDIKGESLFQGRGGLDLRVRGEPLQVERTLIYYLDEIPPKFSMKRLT

[2] = target: T2, Human TROP2 Protein, His Tag (Acro Biosystems) (human, UniProt P09758 27-274); experiment: BLI (Octet) [1/2]
T2 construct: Soluble analyte of the Octet assay; also called TACSTD2; not shown: His tag
T2 sequence (looked up): T1 sequence (looked up)

B1: MYT12295 (antibody, V domains shown)
VH: QVQLQQSGSELKKPGASVKVSCKASGYTFTNHGMNWVKQAPGQGLKWMGWINTYTGEPTHTDDFKGRFAFSLDTSVSTAYLQISSLKADDTAVYFCARGGFGSSYWYFDVWGQGSLVTVSS
VL: DIQLTQSPSSLSASVGDRVSITCKASQDVSIAVAWYQQKPGKAPKLLIYSASYRYTGVPDRFSGSGSGTDFTLTISSLQPEDFAVYYCQQHYITPLTFGAGTKVEIK
notes: sacituzumab VH 32, 60 -> H
binding result [1]: binds

B2: MYT13231 (antibody, V domains shown)
VH: B1 VH with H32Y, H60Y, G66H
VL: B1 VL with I93H
notes: Sacituzumab HC-LC pairing variant; IgG
binding result [2]: binds

B3: MYT12343 (antibody, V domains shown)
VH: B1 VH with H32Y, H60Y
VL: B1 VL with V33H, Q89H
notes: sacituzumab VL 33, 89 -> H
binding result [1]: binds

B4: MYT13243 (antibody, V domains shown)
VH: B1 VH with H32Y, H60Y, D62H
VL: B1 VL with A51H, Q89H
notes: as for B2
binding result [2]: binds

B5: MYT13242 (antibody, V domains shown)
VH: B1 VH with H32Y
VL: B1 VL with A51H, Q89H
notes: as for B2
binding result [2]: binds

B6: MYT13247 (antibody, V domains shown)
VH: B1 VH with H32Y, H60Y, G66H
VL: B1 VL with A51H, Q89H
notes: as for B2
binding result [2]: binds

B7: MYT12319 (antibody, V domains shown)
VH: B1 VH with H32Y, H60Y, F64H, K65H
VL: B1 VL
notes: sacituzumab VH 64, 65 -> H
binding result [1]: binds

B8: MYT12367 (antibody, V domains shown)
VH: B1 VH with H32Y, H60Y
VL: B1 VL with Y92H, I93H
notes: sacituzumab VL 92, 93 -> H
binding result [1]: binds

B9: MYT12354 (antibody, V domains shown)
VH: B1 VH with H32Y, H60Y
VL: B1 VL with S52H, Q89H
notes: sacituzumab VL 52, 89 -> H
binding result [1]: binds

B10: MYT12358 (antibody, V domains shown)
VH: B1 VH with H32Y, H60Y
VL: B1 VL with Y53H, Q89H
notes: sacituzumab VL 53, 89 -> H
binding result [1]: binds

B11: MYT13230 (antibody, V domains shown)
VH: B1 VH with H32Y, H60Y, K65H
VL: B1 VL with I93H
notes: as for B2
binding result [2]: binds

B12: MYT13240 (antibody, V domains shown)
VH: B1 VH with H60Y
VL: B1 VL with A51H, Q89H
notes: as for B2
binding result [2]: binds

B13: MYT12320 (antibody, V domains shown)
VH: B1 VH with H32Y, H60Y, F64H, G66H
VL: B1 VL
notes: sacituzumab VH 64, 66 -> H
binding result [1]: binds

B14: MYT12369 (antibody, V domains shown)
VH: B1 VH with H32Y, H60Y
VL: B1 VL with S30H, A51H, Q89H
notes: sacituzumab VL 30, 51, 89 -> H
binding result [1]: binds

B15: MYT12347 (antibody, V domains shown)
VH: B1 VH with H32Y, H60Y
VL: B1 VL with A51H, S52H
notes: sacituzumab VL 51, 52 -> H
binding result [1]: binds

B16: MYT12318 (antibody, V domains shown)
VH: B1 VH with H32Y, H60Y, D63H, G66H
VL: B1 VL
notes: sacituzumab VH 63, 66 -> H
binding result [1]: binds

B17: MYT12298 (antibody, V domains shown)
VH: B1 VH with H60Y, F64H
VL: B1 VL
notes: sacituzumab VH 32, 64 -> H
binding result [1]: binds

B18: MYT13244 (antibody, V domains shown)
VH: B1 VH with H32Y, H60Y, D63H
VL: B1 VL with A51H, Q89H
notes: as for B2
binding result [2]: binds

B19: MYT12310 (antibody, V domains shown)
VH: B1 VH with H32Y, K65H
VL: B1 VL
notes: sacituzumab VH 60, 65 -> H
binding result [1]: binds

B20: MYT12297 (antibody, V domains shown)
VH: B1 VH with H60Y, D63H
VL: B1 VL
notes: sacituzumab VH 32, 63 -> H
binding result [1]: binds

The remaining lines, values ahead:

binding result [2]: binds
B21: MYT13235 (antibody, V domains shown)
VH: B1 VH with H32Y, H60Y, D62H
VL: B1 VL with A51H, S52H
notes: as for B2

binding result [1]: binds
B22: MYT12348 (antibody, V domains shown)
VH: B1 VH with H32Y, H60Y
VL: B1 VL with A51H, Y53H
notes: sacituzumab VL 51, 53 -> H

binding result [2]: binds
B23: MYT13246 (antibody, V domains shown)
VH: B1 VH with H32Y, H60Y, K65H
VL: B1 VL with A51H, Q89H
notes: as for B2

binding result [1]: binds
B24: MYT12349 (antibody, V domains shown)
VH: B1 VH with H32Y, H60Y
VL: B1 VL with A51H, Q89H
notes: sacituzumab VL 51, 89 -> H

binding result [1]: binds
B25: MYT12306 (antibody, V domains shown)
VH: B1 VH with H32Y, G33H, H60Y, G66H
VL: B1 VL
notes: sacituzumab VH 33, 66 -> H

binding result [1]: binds
B26: MYT12346 (antibody, V domains shown)
VH: B1 VH with H32Y, H60Y
VL: B1 VL with V33H, I93H
notes: sacituzumab VL 33, 93 -> H

binding result [1]: binds
B27: MYT12302 (antibody, V domains shown)
VH: B1 VH with H32Y, G33H, H60Y, D62H
VL: B1 VL
notes: sacituzumab VH 33, 62 -> H

binding result [2]: binds
B28: MYT13245 (antibody, V domains shown)
VH: B1 VH with H32Y, H60Y, F64H
VL: B1 VL with A51H, Q89H
notes: as for B2

binding result [2]: binds
B29: MYT13234 (antibody, V domains shown)
VH: B1 VH with H32Y
VL: B1 VL with A51H, S52H
notes: as for B2

binding result [1]: binds
B30: MYT12368 (antibody, V domains shown)
VH: B1 VH with H32Y, H60Y
VL: B1 VL with S30H, A51H, Y53H
notes: sacituzumab VL 30, 51, 53 -> H

binding result [1]: binds
B31: MYT12342 (antibody, V domains shown)
VH: B1 VH with H32Y, H60Y
VL: B1 VL with V33H, Y53H
notes: sacituzumab VL 33, 53 -> H

binding result [2]: binds
B32: MYT13236 (antibody, V domains shown)
VH: B1 VH with H32Y, H60Y, D63H
VL: B1 VL with A51H, S52H
notes: as for B2

binding result [2]: binds
B33: MYT13248 (antibody, V domains shown)
VH: B1 VH with H60Y
VL: B1 VL with S52H, I93H
notes: as for B2
